From publication PMC4283134, “Nup98 FG domains from diverse species spontaneously phase-separate into particles with nuclear pore-like permselectivity” (eLife, 2015) come the findings set out here.

For assay [1], the target named is Saccharomyces cerevisiae Nup100 FG domain (residues 1-580, FG bodies formed in E. coli) (S. cerevisiae) (UniProt Q02629). Put plainly: partitioning into FG bodies or inclusion bodies (confocal laser-scanning microscopy); crude FG bodies or actin inclusion bodies from E. coli, washed twice in TBS; 1 µM Impβ•IBB-GFP and MBP-mCherry added.
In assay [2] the target is Saccharomyces cerevisiae Nup116 FG domain (residues 1-736, FG bodies formed in E. coli) (S. cerevisiae) (UniProt Q02630). The assay is described as above.
Assay [3] addresses Saccharomyces cerevisiae Nup100 FG domain (residues 2-580, purified) (S. cerevisiae) (UniProt Q02629). Put plainly: partitioning into FG particles (confocal laser-scanning microscopy); FG particles formed from 5 or 10 µM purified FG domain (with labelled tracer) by dilution from GuHCl into TBS; 1 µM fluorescent NTR or NTR⋅cargo complex or 3 µM passive probe added; images about 2-3 min later.

The target of assay [4] is T1, Saccharomyces cerevisiae Importin β (Kap95p) (S. cerevisiae, UniProt Q06142 1-861).
T1 sequence (looked up): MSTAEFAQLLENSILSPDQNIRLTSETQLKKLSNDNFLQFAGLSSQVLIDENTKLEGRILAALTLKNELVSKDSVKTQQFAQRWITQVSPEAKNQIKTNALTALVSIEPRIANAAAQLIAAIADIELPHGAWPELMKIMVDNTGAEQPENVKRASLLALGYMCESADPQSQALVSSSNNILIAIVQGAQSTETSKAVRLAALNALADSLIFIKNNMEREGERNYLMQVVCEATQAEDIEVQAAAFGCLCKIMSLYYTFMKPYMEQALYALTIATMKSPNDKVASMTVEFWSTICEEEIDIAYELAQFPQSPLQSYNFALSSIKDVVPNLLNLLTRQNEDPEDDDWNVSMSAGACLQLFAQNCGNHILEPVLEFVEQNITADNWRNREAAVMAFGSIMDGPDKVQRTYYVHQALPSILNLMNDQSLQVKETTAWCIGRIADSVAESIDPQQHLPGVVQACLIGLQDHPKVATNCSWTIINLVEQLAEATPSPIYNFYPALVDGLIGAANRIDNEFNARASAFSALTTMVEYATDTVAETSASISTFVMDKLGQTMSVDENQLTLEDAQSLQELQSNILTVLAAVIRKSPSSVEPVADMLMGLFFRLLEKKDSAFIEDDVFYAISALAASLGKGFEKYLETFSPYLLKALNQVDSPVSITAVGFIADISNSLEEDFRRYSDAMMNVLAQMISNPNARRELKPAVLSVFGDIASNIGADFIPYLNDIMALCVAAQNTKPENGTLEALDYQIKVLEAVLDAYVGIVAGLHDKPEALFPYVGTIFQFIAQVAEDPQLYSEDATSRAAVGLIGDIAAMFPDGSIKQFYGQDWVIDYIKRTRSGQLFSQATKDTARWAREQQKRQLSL
In words: NTR⋅cargo complex formed from purified proteins, followed by the fluorescent cargo's entry into FG particles (confocal microscopy); 1 µM complex (referring to substrate monomers) added to FG particles; no separate test of complex formation is described. To be noted: both partners purified.

As for “Importin β⋅IBB-GFP complex (from UniProt Q06142 1-861; Q02821 2-63)”, the particle:buffer partition coefficient in assay [1] stood at 200; in assay [2], 200; in assay [3] it was 220.

B1: Atto488-labelled IBB domain of S. cerevisiae Srp1p (domain or fragment)
chain: DNGTDSSTSKFVPEYRRTNFKNKGRFSADELRRRRDTQQVELRKAKRDEALAKRRNFIPPTDC
modifications: also: Atto488 label, position not given here
notes: IBB domain of Srp1p (importin α), S. cerevisiae, residues 2-63; C-terminal cysteine of the construct; The label probably sits on the C-terminal cysteine; also called ScIBB; IBB-Atto488; source: E. coli (BLR or NEB Express), purified (native Ni(II) chelate chromatography, tag removed); not shown: His14, N-terminal, cleaved; ZZ, N-terminal, cleaved; brNEDD8, N-terminal, cleaved
For the molecule B1, the binding result in assay [4] was “binds”.
